Test results: the supplement of paper PMC10567573

B1: TRIM29 (parent)
chain: FAEKGELRKSIFSESRKPTVSIME
B2: KLHDC10 (parent)
chain: FGGTGIPFGESNGNGVHVCNVKYK

Variants of: B1
Experiment: protein stability index of a GFP-peptide fusion (GPS, HEK-293T) (PSI 1-6); higher = more stable
Details: c terminus: a fixed tail appended
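Also: lentivirally expressed fusions sorted by FACS into six bins by GFP to DsRed ratio, PSI derived from sequencing read proportions per bin multiplied by bin number.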

Variant | protein stability index
S10M | 2.12
S10A | 1.91
S10N | 1.76
S10P | 2.27
S10R | 1.35
S10V | 2.46
S10Q | 1.52
S10T | 1.82
S10C | 1.53
S10W | 2.35
S10E | 2.12
S10I | 2.48
S10K | 2.17
S10H | 1.84
S10Y | 2.04
S10D | 2.12
S10L | 1.47
S10G | 2
S10F | 2.32
E6C | 2.57
E6F | 2.65
E6Y | 1.84
E6L | 2.78
E6R | 1.64

Variant | protein stability index
E6T | 1.56
E6A | 1.77
E6K | 1.85
E6V | 1.93
E6W | 2.02
E6N | 1.36
E6D | 1.44
E6H | 2.38
E6I | 1.82
E6M | 1.78
E6S | 1.8
E6P | 2.78
E6Q | 1.45
E6G | 1.47
L7Y | 2.08
L7M | 2.02
L7A | 2.25
L7F | 2.21
L7D | 1.78
L7N | 1.55
L7R | 1.82
L7I | 2.18
L7Q | 2.31
L7P | 2.52

Variant | protein stability index
L7H | 2.44
L7K | 1.7
L7G | 1.46
L7W | 3.9
L7E | 3.15
L7T | 2.32
L7S | 2.22
L7C | 2.8
L7V | 1.62
E3D | 1.9
E3F | 1.42
E3W | 1.83
E3S | 3.11
E3V | 1.15
E3P | 2.79
E3M | 2.09
E3G | 2.95
E3N | 2.29
E3A | 3.08
E3I | 2.43
E3Y | 1.88
E3Q | 2.05
E3H | 1.66
E3C | 1.92

Variant | protein stability index
E3L | 1.04
E3K | 2.29
E3T | 2.59
E3R | 2.27
A2N | 2.91
A2C | 1.66
A2I | 1.89
A2L | 2.38
A2S | 2.53
A2R | 3.42
A2M | 3.21
A2W | 2.74
A2T | 2.36
A2F | 2.52
A2G | 2.06
A2V | 2.1
A2P | 2.59
A2H | 2.07
A2K | 3.44
A2D | 3.76
A2E | 3.35
A2Y | 2.88
A2Q | 3.44
G5C | 1.15

Variant | protein stability index
G5Y | 2.53
G5E | 1.69
G5H | 2.3
G5P | 2.46
G5K | 1.78
G5I | 2.31
G5M | 1.72
G5V | 1.66
G5F | 2.17
G5W | 2.04
G5S | 2.11
G5T | 1.64
G5Q | 2.02
G5L | 2.37
G5D | 1.8
G5R | 1.7
G5A | 1.99
G5N | 1.93
I11F | 2.74
I11C | 1.64
I11S | 3.09
I11A | 2.05
I11G | 3.92
I11Y | 1.7

Variant | protein stability index
I11N | 3.35
I11K | 3.22
I11H | 2.97
I11L | 1.9
I11E | 3.26
I11V | 1.86
I11T | 2.65
I11D | 3.69
I11M | 1.53
I11R | 2.71
I11Q | 3.33
I11P | 2.51
I11W | 2.77
F12C | 2.96
F12R | 3.66
F12Y | 2.04
F12A | 2.74
F12L | 2.41
F12P | 3.96
F12W | 1.14
F12K | 3.54
F12T | 3.54
F12G | 2.59
F12Q | 3.72

Variant | protein stability index
F12I | 3.39
F12V | 3.1
F12N | 3.43
F12E | 3.84
F12H | 4.04
F12D | 4.25
F12M | 3.49
F12S | 3.69
S13A | 2.1
S13E | 2.71
S13G | 1.7
S13C | 1.67
S13D | 2.42
S13I | 1.45
S13K | 2.21
S13H | 1.64
S13L | 1.84
S13F | 2.01
F1W | 2.6
F1S | 3.58
F1Q | 3.97
F1L | 3.14
F1T | 3.95
F1N | 4.34

Variant | protein stability index
F1V | 3.94
F1G | 3.89
F1H | 4.29
F1M | 3.73
F1Y | 1.45
F1C | 2.68
F1E | 4.13
F1R | 3.66
F1P | 3.9
F1K | 4.27
F1I | 3.63
F1A | 4.35
F1D | 4.75
K9P | 2.23
K9F | 1.39
K9R | 2.62
K9L | 3.5
K9E | 1.84
K9N | 1.87
K9D | 1.85
K9G | 2.3
K9I | 3.48
K9V | 2.74
K9T | 1.93

Variant | protein stability index
K9C | 3.57
K9H | 2.16
K9Q | 1.8
K9M | 2.02
K9Y | 2.36
K9S | 1.88
K9A | 1.77
K4W | 3.24
K4H | 1.75
K4Y | 2.16
K4F | 1.77
K4M | 1.39
K4A | 1.87
K4S | 1.8
K4Q | 1.71
K4L | 2.38
K4P | 1.8
K4R | 2.08
K4D | 2.06
K4E | 2.33
K4I | 2.1
K4N | 2.53
K4C | 2.24
K4T | 2.14

Variant | protein stability index
K4V | 2.38
K4G | 2.02
R8L | 2.32
R8A | 3.85
R8Q | 1.93
R8P | 1.89
R8F | 2.64
R8E | 2
R8K | 2.23
R8C | 2.08
R8H | 1.54
R8G | 1.56
R8Y | 2.54
R8I | 2.81
R8M | 1.81
R8D | 2.55
R8N | 2.44
R8T | 2
R8W | 2.85
R8S | 1.47
R8V | 2.74

Variants of: B2
Experiment: as above
Details: c terminus: a fixed tail appended

Variant | protein stability index
C19H | 1.46
C19K | 2.08
C19E | 2.76
N14I | 1.2
N14D | 1.87
N14S | 1.9
Y23C | 2.54
Y23A | 2.76
Y23H | 2.43
Y23I | 2.38
Y23M | 2.1
S11N | 1.91
S11D | 2.52
S11G | 1.54
F8S | 3.62
F8A | 3.78
I6P | 1.94
I6S | 1.88
I6D | 3.29
I6L | 2.39
I6C | 1.87
I6F | 2.3
V18Q | 2.04
H17R | 2.13
H17M | 1.37

Variant | protein stability index
H17I | 1.91
P7E | 2.44
P7I | 1.73
P7F | 3.68
K24P | 2.11
K24V | 1.66
N20T | 1.75
N20D | 1.98
N20C | 1.11
N20W | 2.83
N20K | 2.44
N20M | 1.38
N20Q | 1.87
G5D | 2.95
G5L | 1.89
G5A | 2.07
G5H | 1.92
G5C | 1.71
G5P | 1.86
G5I | 3.13
E10Y | 1.45
E10I | 2.39
E10H | 1.99
E10W | 2.59
E10C | 1.51

Variant | protein stability index
E10P | 1.95
F1P | 3.9
F1Q | 4.24
F1D | 4.58
F1H | 3.93
F1L | 4.04
F1A | 4.18
G9K | 1.79
G9A | 1.85
G9T | 1.66
G9W | 2.89
G9Q | 1.88
G13K | 2.06
G13Y | 2.09
G13R | 2.36
G13N | 1.7
G13P | 1.91
G13W | 2.03
G13D | 2.18
T4G | 2.03
T4Y | 1.68
N12E | 2.11
N12H | 2.22
V16Y | 1.89
V16G | 2.47

Variant | protein stability index
V16D | 2.42
V16I | 2.46
V16K | 2.15
V16E | 2.97
G2N | 2.16
G2M | 2.7
G2R | 3.08
G2L | 2.19
G2S | 2.11
G15C | 1.58
G3S | 2.61
G3V | 2.98
G3W | 1.42
G3N | 2.35
G3K | 2.32
G3E | 3.3
K22G | 1.98
K22W | 2.1
K22I | 1.83
K22Y | 1.95
V21P | 1.92
V21R | 1.72
